The target of test [1] is T1, mouse integrin β8 (mouse, UniProt Q0VBD0 22-767).
T1 construct: whole, on cells; also called mouse β8; itgb8
T1 sequence (looked up): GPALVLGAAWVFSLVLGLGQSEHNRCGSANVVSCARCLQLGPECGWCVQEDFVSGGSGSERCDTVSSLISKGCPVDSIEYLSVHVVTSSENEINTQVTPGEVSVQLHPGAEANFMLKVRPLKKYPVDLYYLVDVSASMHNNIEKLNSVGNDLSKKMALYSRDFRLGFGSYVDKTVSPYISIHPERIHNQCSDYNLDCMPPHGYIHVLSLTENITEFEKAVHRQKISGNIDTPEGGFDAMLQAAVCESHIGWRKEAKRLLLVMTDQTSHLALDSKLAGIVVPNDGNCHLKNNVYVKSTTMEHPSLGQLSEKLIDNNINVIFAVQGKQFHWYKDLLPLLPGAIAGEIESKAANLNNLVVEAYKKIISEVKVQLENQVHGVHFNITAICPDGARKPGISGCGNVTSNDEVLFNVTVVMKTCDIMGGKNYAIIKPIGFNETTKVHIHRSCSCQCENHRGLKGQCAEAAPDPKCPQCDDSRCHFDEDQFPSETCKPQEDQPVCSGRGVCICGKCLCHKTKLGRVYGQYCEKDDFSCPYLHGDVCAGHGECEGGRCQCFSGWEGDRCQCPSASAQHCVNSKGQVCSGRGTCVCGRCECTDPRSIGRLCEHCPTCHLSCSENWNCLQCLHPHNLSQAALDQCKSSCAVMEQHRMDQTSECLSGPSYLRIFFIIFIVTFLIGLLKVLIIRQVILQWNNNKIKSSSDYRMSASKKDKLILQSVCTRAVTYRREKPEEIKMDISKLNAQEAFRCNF
The test is described as follows: cell surface staining, flow cytometry. For orientation: Flow cytometry measures light scatter and fluorescence of single cells or particles in a stream.

For test [2], the target named is T1, mouse integrin β8. The test is described as follows: cell staining of β8 amino acid swap constructs (175-180).

B1: 14E5 antibody (antibody, V domains shown)
VH: EVQLQQSGAELMKPGASVKISCKATGYTFSTYWIEWIKQRPGHGLEWIGHILPGSVITNYNEKFKGKAAITADTSSNTSYMQLSSLTSEDSAVYYCARWGWDSYWGQGTLVTVSS
VL: DIEMTQSPSSLSASLGDRVTISCSTSQDISSSLNWYQQKPDGTVTLLIYYTSNLHSGVPSRFSGSGSGTDYSLTISNLEPEDIATYYCQQYSKLPYTFGGGTKLEIKR
notes: Mouse hybridoma antibody; also called hybridoma clone 14E5
With B1, in test [1], the binding result is “no binding”. Further, in test [2], the “% positive” value was 0%.

B2: 11E8 antibody (antibody, V domains shown)
VH: EVQLQQSGPELMKTGASVKISCKATGYTFSSYWIEWVKQRPGHGLEWIGDILPGSGTTNYNEKFKGRATVTADRSSNTAYMQLSSLTYGDSAVYYCATWGWDTYWDQGTSVTVSS
VL: DIVMTQSPSSLSASLGDRVTISCSASQGISNYLNWYQQKPDGTVKLLIYYTSSLHSGVPSRFSGSGSGTDYSLTISNLEPEDIATYYCQQYSNLPYTFGGGTKLEIKR
notes: Mouse hybridoma antibody
On to B2, for which, in test [1], the binding result is on record as “no binding”. Also, the “% positive” value in test [2] amounted to 0%.

B3: 37E1B5 antibody (antibody, V domains shown)
VH: EVQLVESGGGLVQPGGSLNLSCAVSGFVFSRYWMSWVRQAPGKGLEWIGEINPDSSTINYTSSLKDKFIISRDNAKNTLYLQMNKVRSEDTALYYCACLITTEDYWGQGTSVTVSS
VL: QIVLTQSPSSMYASLGERVTIPCKASQDINSYLSWFQQKPGKSPKTLIYYANRLVDGVPSRFSGSGSGQDYSLTISSLEYEDMGIYYCLQYDEFPYTFGGGTKLEIK
As to B3, in test [2], the “% positive” value came out at 0%.
